Measured values reported in US20170007716A1 (published 2017).

What was measured:
huFAP fusion protein [1] = molecular target: T1, huFAP fusion protein (UniProt Q12884 27-760); assay: ELISA
[2] = molecular target: T2, human FAP on HT1080 cells (HT1080-huFAP, stable transfectants) (UniProt Q12884 1-760); assay: FACS
huFAP fusion protein [3] = molecular target: T1, huFAP fusion protein; assay: ELISA; DAR 3.48
[4] = molecular target: T2, human FAP on HT1080 cells …; assay: FACS; DAR 3.48

T1 sequence (Q12884 27-760): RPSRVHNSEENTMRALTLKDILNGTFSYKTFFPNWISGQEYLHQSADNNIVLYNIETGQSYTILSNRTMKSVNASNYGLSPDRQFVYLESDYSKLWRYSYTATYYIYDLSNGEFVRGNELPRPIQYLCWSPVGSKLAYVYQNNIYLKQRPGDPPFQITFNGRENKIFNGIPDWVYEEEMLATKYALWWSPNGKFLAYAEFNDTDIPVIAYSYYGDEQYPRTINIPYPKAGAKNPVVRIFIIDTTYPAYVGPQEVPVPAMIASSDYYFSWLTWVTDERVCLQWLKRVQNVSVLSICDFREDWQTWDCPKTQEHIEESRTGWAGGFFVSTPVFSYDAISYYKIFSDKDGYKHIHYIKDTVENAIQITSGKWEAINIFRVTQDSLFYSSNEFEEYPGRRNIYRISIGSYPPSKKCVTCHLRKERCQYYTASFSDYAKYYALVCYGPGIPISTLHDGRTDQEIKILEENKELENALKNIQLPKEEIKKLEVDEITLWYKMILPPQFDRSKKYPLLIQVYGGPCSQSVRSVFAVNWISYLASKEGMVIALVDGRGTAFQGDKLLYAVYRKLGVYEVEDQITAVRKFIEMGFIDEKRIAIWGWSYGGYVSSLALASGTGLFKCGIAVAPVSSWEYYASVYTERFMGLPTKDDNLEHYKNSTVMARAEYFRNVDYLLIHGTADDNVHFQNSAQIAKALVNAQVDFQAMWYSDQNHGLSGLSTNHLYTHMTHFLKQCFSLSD
T2 sequence (Q12884 whole entry, the tested form may be a part): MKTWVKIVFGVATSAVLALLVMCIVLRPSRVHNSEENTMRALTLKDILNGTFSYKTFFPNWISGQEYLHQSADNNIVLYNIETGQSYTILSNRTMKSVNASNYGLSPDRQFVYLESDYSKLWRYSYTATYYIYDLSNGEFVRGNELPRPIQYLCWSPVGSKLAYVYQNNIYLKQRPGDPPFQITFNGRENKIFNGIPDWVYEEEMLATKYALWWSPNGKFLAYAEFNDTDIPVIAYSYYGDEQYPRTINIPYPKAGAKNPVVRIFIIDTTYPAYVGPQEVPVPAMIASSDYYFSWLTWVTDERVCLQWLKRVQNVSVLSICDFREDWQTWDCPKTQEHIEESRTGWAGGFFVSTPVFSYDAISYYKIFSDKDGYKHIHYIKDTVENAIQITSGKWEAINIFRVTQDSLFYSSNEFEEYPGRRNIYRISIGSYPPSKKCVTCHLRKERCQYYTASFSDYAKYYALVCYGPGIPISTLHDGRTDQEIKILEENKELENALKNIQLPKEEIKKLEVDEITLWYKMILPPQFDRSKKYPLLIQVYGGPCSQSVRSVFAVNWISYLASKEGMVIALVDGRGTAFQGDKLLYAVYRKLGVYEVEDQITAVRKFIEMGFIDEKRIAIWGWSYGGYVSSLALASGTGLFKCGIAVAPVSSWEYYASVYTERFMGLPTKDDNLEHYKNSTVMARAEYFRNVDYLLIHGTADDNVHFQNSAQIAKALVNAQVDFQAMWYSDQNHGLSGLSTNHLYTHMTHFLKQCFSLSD

| Binder | EC50 (huFAP fusion protein [1]) | EC50 [2] | EC50 (huFAP fusion protein [3]) | EC50 [4] |
| --- | --- | --- | --- | --- |
| humanized anti-FAP IgG1 hu36 (hu36-IgG1) (antibody, V domains shown) VH: QVQLVQSGAEVKKPGASVKVSCKASGYTFTENIIHWVRQAPGQGLEWMGWFHPGSGSIKYNEKFKDRVTMTADTSTSTVYMELSSLRSEDTAVYYCARHGGTGRGAMDYWGQGTLVTVSS VL: DIQMTQSPSSLSASVGDRVTITCRASKSVSTSAYSYMHWYQQKPGKAPKLLIYLASNLESGVPSRFSGSGSGTDFTLTISSLQPEDFATYYCQHSRELPYTFGQGTKLEIKR | 0.21 nM | 0.067 nM |  |  |
| Anti-FAP hu36:TAM471 ADC (ADC-471) (antibody, V domains shown, cytolysin TAM471 through maleimidocaproyl-vcPABA linker on cysteine residues (not site-specific); cytolysin TAM471 through maleimidocaproyl-vcPABA linker on cysteine residues (not site-specific), DAR 3.48 for the whole antibody) VH: QVQLVQSGAEVKKPGASVKVSCKASGYTFTENIIHWVRQAPGQGLEWMGWFHPGSGSIKYNEKFKDRVTMTADTSTSTVYMELSSLRSEDTAVYYCARHGGTGRGAMDYWGQGTLVTVSS VL: DIQMTQSPSSLSASVGDRVTITCRASKSVSTSAYSYMHWYQQKPGKAPKLLIYLASNLESGVPSRFSGSGSGTDFTLTISSLQPEDFATYYCQHSRELPYTFGQGTKLEIKR |  |  | 0.153 nM | 0.081 nM |
